Results on two molecules are retold here after paper PMC4243239 (Nature communications, 2014).

Data set [1] concerns the molecule itself. The data set can be described thus: SEC-MALS.
The target of data set [2] is T1, B. subtilis FtsZ, untagged (B. subtilis, UniProt P17865 1-382).
T1 sequence: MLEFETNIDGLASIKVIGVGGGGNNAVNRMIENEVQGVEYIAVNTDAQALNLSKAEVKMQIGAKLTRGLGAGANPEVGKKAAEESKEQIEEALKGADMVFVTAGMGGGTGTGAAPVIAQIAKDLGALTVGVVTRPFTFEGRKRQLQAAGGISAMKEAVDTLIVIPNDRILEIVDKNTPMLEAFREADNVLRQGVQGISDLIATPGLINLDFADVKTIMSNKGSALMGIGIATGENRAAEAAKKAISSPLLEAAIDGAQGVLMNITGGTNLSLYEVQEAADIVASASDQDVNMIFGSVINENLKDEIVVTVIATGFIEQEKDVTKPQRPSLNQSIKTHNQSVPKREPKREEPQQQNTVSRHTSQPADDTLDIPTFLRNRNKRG
The experiment in a line: SPR.

Data set [3] concerns the molecule itself. The experiment in a line: crystal structure.
The target of data set [4] is T2, B. subtilis FtsZ with a 15-residue recombinant N-terminal T7 epitope tag (B. subtilis, UniProt P17865 1-382).
T2 sequence (looked up): T1 sequence
The experiment in a line: cross-linking.

B1: BsEzrA_(22–217), spectrin repeats one and two of B. subtilis EzrA (domain or fragment, UniProt O34894 22-217, looked up)
chain: RKKIYAEIDRLESWKIEILNRSIVEEMSKIKHLKMTGQTEEFFEKWREEWDEIVTAHMPKVEELLYDAEENADKYRFKKANQVLVHIDDLLTAAESSIEKILREISDLVTSEEKSREEIEQVRERYSKSRKNLLAYSHLYGELYDSLEKDLDEIWSGIKQFEEETEGGNYITARKVLLEQDRNLERLQSYIDDVPK
With B1, the binding result in data set [1] is listed as “binds”. Also, in data set [2], the dissociation constant (Kd) stood at 13.7 ± 1.5 µM.

B2: B. subtilis EzrA cytoplasmic domain lacking the N-terminal 21 residue trans-membrane helix, BsEzrA_(22-562) (domain or fragment, UniProt O34894 22-562, looked up)
chain: RKKIYAEIDRLESWKIEILNRSIVEEMSKIKHLKMTGQTEEFFEKWREEWDEIVTAHMPKVEELLYDAEENADKYRFKKANQVLVHIDDLLTAAESSIEKILREISDLVTSEEKSREEIEQVRERYSKSRKNLLAYSHLYGELYDSLEKDLDEIWSGIKQFEEETEGGNYITARKVLLEQDRNLERLQSYIDDVPKLLADCKQTVPGQIAKLKDGYGEMKEKGYKLEHIQLDKELENLSNQLKRAEHVLMTELDIDEASAILQLIDENIQSVYQQLEGEVEAGQSVLSKMPELIIAYDKLKEEKEHTKAETELVKESYRLTAGELGKQQAFEKRLDEIGKLLSSVKDKLDAEHVAYSLLVEEVASIEKQIEEVKKEHAEYRENLQALRKEELQARETLSNLKKTISETARLLKTSNIPGIPSHIQEMLENAHHHIQETVNQLNELPLNMEEAGAHLKQAEDIVNRASRESEELVEQVILIEKIIQFGNRFRSQNHILSEQLKEAERRFYAFDYDDSYEIAAAAVEKAAPGAVEKIKADISA
For the molecule B2, the binding result in data set [3] is recorded as “binds”. In addition, the “stoichiometry N” value in data set [4] was 1 EzrA:FtsZ.

In general, Kd refers to the constant that tells how readily two partners part at equilibrium. A low value points to higher affinity.
